Data from patent US20050227296A1, “Method for indentifying integrin antagonists” (The General Hospital Corporation, a Massachusetts …, priority 1988, published 2005).

Target: T1, EAiC3b (erythrocytes coated with iC3b) (Homo sapiens, UniProt P01024)
T1 construct: EAiC3b (erythrocytes coated with iC3b) were generated by treating EAC3b with purified human factors H and I; tissue Sigma Chemical Co. (C5-deficient human serum); host or cells: human serum C3 deposited on IgM-coated erythrocytes
Experiment: Erythrocyte binding assay, EAiC3b on immobilized proteins or peptides
Details: 37° C., divalent cations
Experimental: Erythrocytes (E) coated with rabbit anti-E IgM (EA) or C3b (EAC3b) were prepared as described by Dana et al. (J. Immunol. 73:153, 1984). EAiC3b (erythrocytes coated with iC3b) were generated by treating EAC3b with purified human factors H and I, or alternatively prepared from EA using C5-deficient human serum (Sigma Chemical Co., St. Louis, Mo.). EAiC3b cells were washed and stored in isotonic veronal-buffered saline (VBS^2+), pH 7.4, containing 0.15 mM calcium-1 mM magnesium (MgCl2+CaCl2) and 1 mg/ml Soybean Trypsin Inhibitor (STI; Worthington Biochemical Co., Freehold, N.J.) at 1.5×10^8 cells/ml. […]
Immobilization of recombinant proteins and peptides: Purified recombinant A-domain was added to Immulon-2 96-well microtiter plates (Dynatech) overnight. […] Binding of the anti-CD11b mabs to the coated rA-domain was measured by ELISA and read using a plate reader (Molecular Dynamics).
Erythrocyte binding assays: Fluoresceinated EAiC3b, EAC3b or EA were resuspended to 1.5×10^8/ml in buffer A, and added […] to wells containing immobilized proteins or peptides in a total volume of 100 ml. […] Fluorescence was quantified (excitatory wavelength, 490 nm, emission wavelength, 510 nm) using a SLM 8000 fluorometer (SLM Instruments, Urbana, Ill.). […] The effect of temperature was evaluated in the presence of 1 mM MnCl2 at 37° C. and at 4° C.

T1 sequence (P01024 749-1303 limits assumed): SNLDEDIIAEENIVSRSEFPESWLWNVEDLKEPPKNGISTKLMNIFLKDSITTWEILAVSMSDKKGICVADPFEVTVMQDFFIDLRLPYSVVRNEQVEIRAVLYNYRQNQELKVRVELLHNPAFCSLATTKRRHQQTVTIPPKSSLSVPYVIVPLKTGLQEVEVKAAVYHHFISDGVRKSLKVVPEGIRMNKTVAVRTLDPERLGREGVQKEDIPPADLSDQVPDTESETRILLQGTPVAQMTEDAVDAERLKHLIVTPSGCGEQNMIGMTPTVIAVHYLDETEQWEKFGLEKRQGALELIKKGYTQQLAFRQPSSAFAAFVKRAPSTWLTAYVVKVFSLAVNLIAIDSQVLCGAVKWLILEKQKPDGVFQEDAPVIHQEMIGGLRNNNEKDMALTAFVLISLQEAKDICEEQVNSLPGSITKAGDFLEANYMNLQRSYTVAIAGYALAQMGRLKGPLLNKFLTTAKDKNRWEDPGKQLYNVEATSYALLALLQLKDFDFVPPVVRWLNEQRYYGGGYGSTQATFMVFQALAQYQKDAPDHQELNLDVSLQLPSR
T1 sequence (P01024 23-667 partner limits assumed): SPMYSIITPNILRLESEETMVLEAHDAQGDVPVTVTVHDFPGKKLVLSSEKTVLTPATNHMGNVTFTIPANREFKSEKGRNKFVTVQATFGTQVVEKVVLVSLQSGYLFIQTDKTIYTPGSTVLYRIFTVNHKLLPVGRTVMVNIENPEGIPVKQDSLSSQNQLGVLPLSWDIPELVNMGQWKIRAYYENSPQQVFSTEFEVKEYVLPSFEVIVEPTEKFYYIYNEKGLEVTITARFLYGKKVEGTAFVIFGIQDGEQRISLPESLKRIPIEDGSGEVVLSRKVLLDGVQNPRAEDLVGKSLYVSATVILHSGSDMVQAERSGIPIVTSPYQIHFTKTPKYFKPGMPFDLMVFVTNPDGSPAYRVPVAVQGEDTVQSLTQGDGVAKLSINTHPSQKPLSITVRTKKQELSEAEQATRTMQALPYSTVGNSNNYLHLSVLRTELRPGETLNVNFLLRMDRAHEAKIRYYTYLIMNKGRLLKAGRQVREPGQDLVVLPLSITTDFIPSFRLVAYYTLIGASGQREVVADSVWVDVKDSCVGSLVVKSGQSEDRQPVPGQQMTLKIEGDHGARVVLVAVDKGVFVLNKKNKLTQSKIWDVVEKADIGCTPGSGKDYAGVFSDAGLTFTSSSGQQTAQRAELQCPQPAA
T1 sequence (P01024 1321-1663 partner limits assumed): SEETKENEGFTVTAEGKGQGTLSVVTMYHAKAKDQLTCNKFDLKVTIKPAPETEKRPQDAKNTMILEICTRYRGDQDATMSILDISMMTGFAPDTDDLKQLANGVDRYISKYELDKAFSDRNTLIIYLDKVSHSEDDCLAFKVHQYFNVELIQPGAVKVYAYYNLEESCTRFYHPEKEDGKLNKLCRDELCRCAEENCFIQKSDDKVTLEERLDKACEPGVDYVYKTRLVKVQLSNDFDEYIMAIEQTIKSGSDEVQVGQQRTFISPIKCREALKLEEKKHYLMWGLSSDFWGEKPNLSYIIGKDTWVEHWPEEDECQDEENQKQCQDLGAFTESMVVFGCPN

B1: r11aA: recombinant CD11a A domain expressed as GST fusion protein (protein)
chain: GNVDLVFLFDGSMSLQPDEFQKILDFMKDVMKKLSNTSYQFAAVQFSTSYKTEFDFSDYVKRKDPDALLKHVKHMLLLTNTFGAINYVATEVFREELGARPDATKVLIIITDGEATDSGNIDAAKDIIRYIIGIGKHFQTKESQETLHKFASKPASEFVKILDTFEKLKDLFTELQKKIY
Listed as rA-domain derived from CD11a/CD18
  direct binding of EAiC3b to immobilized protein or peptide: did not bind
Listed as rCD11a A-domain
  direct binding of EAiC3b to immobilized protein or peptide: lack of binding
